In this experiment the target is T1, odorranalectin (Odorrana grahami).
T1 chain: YASPKCFRYPNGVLACT
The experiment is described as follows: SPR; glycans on fetuin (lectin-type recognition of a glycoprotein); calcium not required. (In general: In SPR one partner is held on a chip, and binding of the other changes the refractive index at the surface.)

B1: fetuin (protein)
chain: IPLDPVAGYKEPACDDPDTEQAALAAVDYINKHLPRGYKHTLNQIDSVKVWPRRPTGEVYDIEIDTLETTCHVLDPTPLANCSVRQQTQHAVEGDCDIHVLKQDGQFSVLFTKCDSSPDSAEDVRKLCPDCPLLAPLNDSRVVHAVEVALATFNAESNGSYLQLVEISRAQFVPLPVSVSVEFAVAATDCIAKEVVDPTKCNLLAEKQYGFCKGSVIQKALGGEDVRVTCTLFQTQPVIPQPQPDGAEAEAPSAVPDAAGPTPSAAGPPVASVVVGPSVVAVPLPLHRAHYDLRHTFSGVASVESSSGEAFHVGKTPIVGQPSIPGGPVRLCPGRIRYFKI
As a reminder, the Kd is the concentration at which binding is half-saturated. For the molecule B1, the Kd turned out to be 211 nM.

(Values after article PMC2440032 (2008).)
